Source: paper PMC11379828

T1: MBP-EFD (1-260 aa) (Arabidopsis thaliana, UniProt Q9M389 1-260)
T1 sequence: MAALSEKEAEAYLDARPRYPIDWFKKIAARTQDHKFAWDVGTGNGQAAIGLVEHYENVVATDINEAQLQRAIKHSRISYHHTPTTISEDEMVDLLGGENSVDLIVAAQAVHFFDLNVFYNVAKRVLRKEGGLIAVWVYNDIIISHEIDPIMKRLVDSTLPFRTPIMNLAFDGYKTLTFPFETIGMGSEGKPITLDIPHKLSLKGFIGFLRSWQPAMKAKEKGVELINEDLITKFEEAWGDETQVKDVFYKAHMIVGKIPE

T2: MBP-EFD (Arabidopsis thaliana, UniProt Q9M389 1-323)
T2 sequence: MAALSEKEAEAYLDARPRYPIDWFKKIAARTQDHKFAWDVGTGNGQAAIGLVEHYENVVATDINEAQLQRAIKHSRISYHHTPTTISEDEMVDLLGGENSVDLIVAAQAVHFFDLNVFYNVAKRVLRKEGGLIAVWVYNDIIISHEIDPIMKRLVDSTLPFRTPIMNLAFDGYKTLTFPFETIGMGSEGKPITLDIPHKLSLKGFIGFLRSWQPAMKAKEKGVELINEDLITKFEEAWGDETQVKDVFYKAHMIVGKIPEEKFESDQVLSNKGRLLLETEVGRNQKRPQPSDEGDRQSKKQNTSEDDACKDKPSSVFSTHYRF

B1: HB21 probe, unmethylated (HB21+1410) (dsDNA)
DNA 1: ATCCTCTGTGACCATTGAAGCCAATCATACGACACCGTTTTTTGGAGATTACGACATCGGATTTGACGGTGAGGCTGACGAG
DNA 2: CTCGTCAGCCTCACCGTCAAATCCGATGTCGTAATCTCCAAAAAACGGTGTCGTATGATTGGCTTCAATGGTCACAGAGGAT
B2: HB21 probe, methylated (HB21+1410) (dsDNA)
DNA 1: ATCCTCTGTGACCATTGAAGCCAATCATACGACACCGTTTTTTGGAGATTACGACATCGGATTTGACGGTGAGGCTGACGAG
DNA 2: CTCGTCAGCCTCACCGTCAAATCCGATGTCGTAATCTCCAAAAAACGGTGTCGTATGATTGGCTTCAATGGTCACAGAGGAT
modifications: 5-methylcytosine, positions not given

Key:
MBP-EFD (1-260 aa) = target: T1, MBP-EFD (1-260 aa); assay: EMSA
MBP-EFD = target: T2, MBP-EFD; assay: EMSA

Row | Binder | binding result (MBP-EFD (1-260 aa)) | binding result (MBP-EFD)
1 | B1 | binds | binds
2 | B2 | binds | 
